Laboratory results: publication PMC4749557

Assays:
[1] = molecular target: 12 clones that bound to human PRDM14 (monobodies; the members other than Mb(S4) and Mb(S14) are not given); experiment: yeast surface display; KD of monobody clones displayed on yeast for hPRDM14
[2] = molecular target: Mb(hPRDM14_S14) displayed on the yeast surface; experiment: as above
[3] = molecular target: Mb(hPRDM14_S14) displayed on the yeast surface; experiment: yeast surface display; monobodies on the yeast surface with 50 nM of hPRDM14 or a homologue

Kd [1]: < 100 nM | Kd [2]: < 100 nM | fold stronger binding than hPRDM6 and hPRDM12 [3]: > 5 fold
B1: human PRDM14 (residues 238–487) (domain or fragment)
chain: LPQTLDKDSLQLPEGLCLMQTVFGEVPHFGVFCSSFIAKGVRFGPFQGKVVNASEVKTYGDNSVMWEIFEDGHLSHFIDGKGGTGNWMSYVNCARFPKEQNLVAVQCQGHIFYESCKEIHQNQELLVWYGDCYEKFLDIPVSLQVTEPGKQPSGPSEESAEGYRCERCGKVFTYKYYRDKHLKYTPCVDKGDRKFPCSLCKRSFEKRDRLRIHILHVHEKHRPHKCSTCGKCFSQSSSLNKHMRVHSGDR
modifications: biotin (biotin-acceptor tag)
